The values below come from patent US20260242721A1, “A SYNTHETIC CELLULAR ADVANCED SIGNAL ADAPTER (SCASA) SYSTEM” (Danmarks Tekniske Universitet, priority 2023, published 2026).

The target of data set [1] is Aga2-HA-PAS40-(G4S)3-CD19-myc yeast surface display fusion protein (CD19.1 ECD displayed on SCASA yeast aAPCs) (synthetic construct, CD19 part modified from human). Description: cell-based or functional assay.
The target in data set [2] is CD19 on the human CD19+ NALM6 B cell precursor leukemia cell line (human) (UniProt P15391). Description: cell-based or functional assay.
Data set [3] addresses Schizosaccharomyces pombe P-factor pheromone receptor (Mam2) (Schizosaccharomyces pombe) (UniProt Q00619). Description: cell-based or functional assay.
In data set [4] the test system is CD19. Description: Yeast surface display (YSD) of CD19, antibody staining and flow cytometry. The class given is cell-based, Saccharomyces cerevisiae. On the procedure: To investigate the different variants of CD19 modules, yeast cells were grown and, in some cases, stimulated to present CD19 differentially, whereafter they were stained with antibodies and assessed by flow cytometry. Flow cytometric measurement was done using a NovoCyte Quanteon flow cytometer (Agilent) to quantify CD19 by staining with mouse anti-CD19 (FMC63) (Absolute Antibody; Ab00613) and goat anti-mouse-AF647 (polyclonal) (Thermo Fisher; A-21236), detected in R667/30-H, as well as rabbit anti-HA (RM305) (Thermo Fisher; MA5-27915) and goat anti-rabbit-AF488 (polyclonal) (Thermo Fisher; A-11008), detected in B525/45-H (see FIG. 7), and to measure PRP-regulated morphological changes (SSC-H). […] Data represents means of median fluorescence intensity (mMFI) for three biological replicates and standard deviations hereof. Two-way ANOVA with multiple comparisons tests was conducted for all conditions. Histograms are representative replicates. No SSC-normalization was used in the evaluation of the effector module, unlike in Example 1, as it is the absolute response of all effects combined that constitute the total output that CAR T cells interpret and react to.
For conventional YSD using strain EBY100 and pCT-plasmid-based expression (Chao et al. 2006, Isolating and engineering human antibodies using yeast surface display. Nature Protocols, 1(2), 755-768), strains were pre-grown in SC −trp, then transferred to 5 mL SC −trp +2% Gal for induction of YSD or +2% Gluc as a negative control (24 hrs., 30° C., 250 r.p.m.). NALM6 was cultured in RPMI 1640 medium (ATCC modification) (Thermo Fisher) with 10% fetal bovine serum and 1% pen-strep (RPMI+10% FBS) at 37° C. with 5% CO2. For the investigation of PGAL1-titratability of DIX41 with pMAD58 and DIX74, strains were pre-grown in SC −ura and SC, respectively, then transferred to SC −ura and SC, respectively, with varying concentrations of galactose (0.0002%-2% Gal), using raffinose as compensating carbon source, and YSD was induced for 24 hrs. (30° C., 250 r.p.m.). Strains were similarly grown in 2% Gluc as negative controls. For the investigation of the strain library with constitutive and dynamically regulated expression of CD19 (Background strain/No YSD, PPGK1-Empty, PMFA2-CD19, PFUS1-CD19, PFIG.1-CD19, PMFA1-CD19, PHPF1-CD19, PTDH3-CD19, PPGK1-CD19) the strains were pre-grown in SC, whereafter, for each replicate, 50.000 cells were transferred to 300 μL volumes comprising a 10-fold dilution series of α-factor (0-100 μM) (GenScript) dissolved in SC+1% DMSO, and stimulated for 20 hrs. (30° C., 250 r.p.m.).

For data set [5], the system named is pheromone response pathway (PRP). On the procedure:
To investigate the dose-response features of the selected promoters PMFA2, PFUS1, PAGA2, PFIG.1, PMFA1, PYCL076W, PHPF1, PIME4, PCSS1, PTDH3, PPGK1 and P6XLexOLEU2 upon GPCR stimulation the strains were pre-grown in SC (24 hrs.), whereafter, for each replicate, cells were transferred to 200 μL volumes comprising a 10-fold dilution series of α-factor (0-100 μM) (GenScript) dissolved in SC+1% DMSO, and stimulated for 5 hrs. (30° C., 250 r.p.m.). Flow cytometric measurement was done to quantify yEGFP levels (B525/45-A) and PRP-regulated morphological changes, denoted shmooing (SSC-A) using a NovoCyte Quanteon flow cytometer (Agilent). Data represents means of median fluorescence intensity (mMFI) for three biological replicates and standard deviations hereof. Two-way ANOVA with Tukey's multiple comparisons test was conducted for all conditions.

Sequence of UniProt P15391 (P15391 20-556): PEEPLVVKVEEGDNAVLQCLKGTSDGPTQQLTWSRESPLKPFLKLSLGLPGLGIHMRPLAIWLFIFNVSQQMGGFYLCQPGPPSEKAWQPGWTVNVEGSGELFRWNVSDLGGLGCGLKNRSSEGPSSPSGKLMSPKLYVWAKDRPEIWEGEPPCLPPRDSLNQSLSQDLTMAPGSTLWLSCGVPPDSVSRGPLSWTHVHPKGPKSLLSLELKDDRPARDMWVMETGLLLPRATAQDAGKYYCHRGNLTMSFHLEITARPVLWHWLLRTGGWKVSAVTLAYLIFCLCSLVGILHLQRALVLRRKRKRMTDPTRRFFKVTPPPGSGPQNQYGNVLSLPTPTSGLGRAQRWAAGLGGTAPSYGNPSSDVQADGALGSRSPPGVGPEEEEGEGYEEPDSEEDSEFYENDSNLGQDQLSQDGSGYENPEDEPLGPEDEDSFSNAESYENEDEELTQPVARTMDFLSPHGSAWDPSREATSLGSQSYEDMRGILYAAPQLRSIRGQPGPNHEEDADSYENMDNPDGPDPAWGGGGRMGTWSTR
Sequence of UniProt Q00619 (Q00619 other isoform, or with tags, fused parts or gaps): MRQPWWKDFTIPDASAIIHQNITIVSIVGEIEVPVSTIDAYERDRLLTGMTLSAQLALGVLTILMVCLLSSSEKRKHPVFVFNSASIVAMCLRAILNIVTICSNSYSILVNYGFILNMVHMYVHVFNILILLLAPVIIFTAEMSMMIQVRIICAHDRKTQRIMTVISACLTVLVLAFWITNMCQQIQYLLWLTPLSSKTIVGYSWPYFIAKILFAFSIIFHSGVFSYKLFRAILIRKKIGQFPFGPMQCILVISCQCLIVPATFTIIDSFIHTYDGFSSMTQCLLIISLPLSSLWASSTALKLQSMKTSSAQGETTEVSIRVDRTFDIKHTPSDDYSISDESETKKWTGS

In data set [1], “anti-CD19 CAR (FMC63-CD8α-4-1BB-CD3ζ) (receptor)” returned a fold specific activation of CAR+ Jurkat NFAT-Luc cells, yeast PFUS1-CD19 at 0.01 µM α-factor of 3.2 fold; a fold specific activation of CAR+ Jurkat NFAT-Luc cells, yeast PTDH3-CD19 at 0.001 µM α-factor of 27.7 fold; an increase of CAR+ Jurkat NFAT-Luc activation relative to the uninduced condition, yeast PTDH3-CD19 at 0.1 µM α-factor of 10.3 fold; an increase of CAR+ Jurkat NFAT-Luc specific activation relative to the unstimulated condition, yeast PMFA2-CD19 at 0.01 µM α-factor of 15.3 fold. In data set [1], the increase of CAR+ Jurkat NFAT-Luc specific activation relative to the unstimulated condition, yeast PMFA2-CD19 at 0.1 µM α-factor was determined as 14.5 fold; the increase of CAR+ Jurkat NFAT-Luc specific activation relative to the unstimulated condition, yeast PMFA2-CD19 at 1 µM α-factor was found to be 13.6 fold; the increase of CAR+ Jurkat NFAT-Luc specific activation relative to the unstimulated state, yeast PFUS1-CD19 at 1 µM α-factor came out at 3.1 fold; the maximal fold specific activation of Jurkat NFAT-Luc cells without GPCR stimulation, yeast PMFA2-CD19, 90% CAR+ came out at 5.5 fold. Moreover, in data set [1], the maximal fold specific activation of Jurkat NFAT-Luc cells without GPCR stimulation, yeast PPGK1-CD19, 100% CAR+ stood at 11.5 fold; the maximal fold specific activation of Jurkat NFAT-Luc cells without GPCR stimulation, yeast PTDH3-CD19, 70% CAR+ came out at 12.8 fold; the maximal specific activation of 100% CAR+ Jurkat NFAT-Luc cells (luciferase), yeast PFUS1-CD19 pre-stimulated with 1 µM α-factor turned out to be 4.1 fold; the maximal specific activation of 100% CAR+ Jurkat NFAT-Luc cells (luciferase), yeast PMFA2-CD19 pre-stimulated with 0.01 µM α-factor was found to be 22.3 fold. For the same molecule, in data set [1], the maximal specific activation of 100% CAR+ Jurkat NFAT-Luc cells (luciferase), yeast PTDH3-CD19 pre-stimulated with 0.1 µM α-factor was found to be 61.9 fold and the maximal specific activation of CAR+ Jurkat NFAT-Luc cells by yeast PTDH3-CD19 relative to NALM6 came to 2.2 fold. In data set [2], this molecule returned a maximal specific activation by NALM6 relative to any SCASA yeast aAPC without GPCR stimulation of 2.2 fold and a peaking activation intensity of Jurkat NFAT-Luc cells co-cultured with NALM6, 90% CAR+ of 28.1 fold.
As to P-factor (GenScript) (peptide), the fold change of CD19 expression (PFUS1 cassette, anti-HA staining), strain DIX60, pH=5, 0-10 µM P-factor in data set [3] worked out at 249 fold.

B1: PFIG.1: pheromone-responsive Saccharomyces cerevisiae promoter, SEQ ID NO: 9, processing module (yEGFP strain DIX25, CD19 strain DIX56) (nucleic acid, listed as Saccharomyces cerevisiae)
DNA: TTGAATGATCAACCAAACGCCGATATAGTCACTATTGGTGATAAAATTAAAATGCAGCTATTGAGAACCCATCCTAACAACATTAAATTGTCTATTAATGGAATTGGTAAAGATGCCCCAACTTTCCAAGAATCTGCTTTGATTGCCGATAAGTTATTGAGTGTCATGAAGGCCGGCACTTACCCAAAGATTTCCATTTTCTACAATGACCCAGTGTCTTCCCTATCTTTTGAACCATCTGAAAAACCGATCTTTAACGCCAAGACCATTGAACAATCCCCATCATTCGGCAAATTTGAGATCGACACGGACGCAAACGTTCCAAGAGATTTGTTTGAATATACTTTGGCTAACCAAATGTTGACAGCAATGGCTCAAGGTTATGCTGCTGAAATTTCCGCCAGAAGAAACGCTATGGATAACGCTTCCAAGAATGCCGGTGATATGATCAATCGTTACTCTATCTTGTACAACAGAACAAGACAAGCTGTCATTACTAATGAACTGGTTGATATTATTACTGGTGCTTCCTCTTTGGGATGATAAAAAAATCACCCTGCATTGCCTCTTTATTTGACGTTGTTTTTGTAGAACATGAAACGAATTTTGACTTGATGAGACGAAGTATATATCCAAAGAATACCTTAAATAGAAAAGGAAAGATAATAAATACTAAACACTACTATATATTCAGGTAAAATACAAAAATTATAACATTTTTAAAACTTTTTTTTTTTGAAAGTCCTTCTCGCTTTAGGATTTTTTCCCATTAAGATTATGATGGTTTCATGTATGTGTCAGTTAAAAAAAATATGGCTAAGTAGCAATGAAACGAACCAAGAAAATGAAAACAATATATAGTGCTGTTGAAATAACAAAGACATTGGTATATATTTGTAAAATGTCTGTTAAATGTTTTTTATCTCAGGTTCTTGCTTGTCTTTGGTAGAAGAAATTATAGTAAACAAACAAACAAACAAACAAAAAAAAAAAAAAAAAA
Consider B1, for which the “CD19 level at unstimulated conditions” value in data set [4] (no GPCR stimulation) is reported as “extremely low levels of CD19 at the limit of detection”. Further, the “fold upregulation of CD19 display relative to unstimulated condition” value in data set [4] (α-factor 0-100 μM, 20 hrs, promoter driving CD19 in DIX41 background) worked out at 629.6±98.6 fold. The “maximum fold change of yEGFP, unnormalized” value in data set [5] (1 μM α-factor (peak)) is 516.8±83.0 fold. Further, the “fold change of yEGFP, unnormalized” value in data set [5] (100 μM α-factor) was found to be 482.6±98.5 fold. Besides, in data set [5] (100 μM α-factor (peak)), the “maximum fold change of yEGFP, SSC-normalized” value is 128.8±7.2 fold. Further, the “fold change of induction of yEGFP, SSC-normalized” value in data set [5] (α-factor 0-100 μM, 5 hrs, excluding PRP-induced expression boost) is on record as 128.81±7.17 fold.
